Assay [1] has as its target T1, biotin-labelled Jab1 (in vitro translated) (human, UniProt Q92905 2-334, biotin-labelled during in vitro translation (Transcend non-radioactive translation detection system); positions not stated).
T1 construct: also called biotin-Jab1; biotin-labelled p38^Jab1
The assay is described as follows: competition with wildtype MIF for biotin-Jab1 in TNT reticulocyte lysate.

For assay [2], the target named is T2, Recombinant human MIF (macrophage migration inhibitory factor) (human, UniProt P14174 2-115).
T2 construct: Used soluble (1 uM in TNT lysates); also called rMIF; rwtMIF
The assay is described as follows: assay not described.

T1 sequence (Q92905 2-334 limits assumed): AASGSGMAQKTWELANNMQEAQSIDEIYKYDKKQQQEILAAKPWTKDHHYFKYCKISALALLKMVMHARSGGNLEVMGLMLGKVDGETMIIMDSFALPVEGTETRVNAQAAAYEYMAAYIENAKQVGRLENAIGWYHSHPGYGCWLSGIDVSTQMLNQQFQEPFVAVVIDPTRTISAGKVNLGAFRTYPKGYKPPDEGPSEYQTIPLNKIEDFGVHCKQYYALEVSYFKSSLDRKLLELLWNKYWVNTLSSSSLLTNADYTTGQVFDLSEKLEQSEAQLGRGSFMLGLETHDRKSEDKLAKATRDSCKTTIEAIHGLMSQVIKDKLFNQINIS
T2 sequence (P14174 2-115 limits assumed): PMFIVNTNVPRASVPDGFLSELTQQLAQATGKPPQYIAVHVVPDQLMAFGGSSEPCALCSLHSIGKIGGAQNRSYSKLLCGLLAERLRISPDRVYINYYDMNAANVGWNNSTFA

B1: Ser^57 Ser^60 MIF (50-65) peptide (peptide)
peptide: FGGSSEPSALSSLHSI
notes: also called analogue of the MIF (50-65) peptide with the two Cys residues substituted for Ser
For B1, the binding result in assay [1] is on record as “binds”.

B2: p27^Kip1 (other, UniProt P46414 1-197, looked up)
chain: MSNVRVSNGSPSLERMDARQAEHPKPSACRNLFGPVNHEELTRDLEKHCRDMEEASQRKWNFDFQNHKPLEGRYEWQEVERGSLPEFYYRPPRPPKSACKVLAQESQDVSGSRQAVPLIGSQANSEDRHLVDQMPDSSDNPAGLAEQCPGMRKRPAAEDSSSQNKRANRTEENVSDGSPNAGTVEQTPKKPGLRRQT
B2: the binding result in assay [2] is “no binding”.

B3: MIF (50-65) peptide (peptide)
peptide: FGGSSEPCALCSLHSI
notes: 16 residues, positions 50-65 of wildtype MIF; also called MIF peptide (50-65); Cys60-spanning 16 residue MIF peptide
As to B3, the binding result in assay [1] is given as “binds”.

The values above are taken from patent USRE43497 (FRAUNHOFER GESELLSCHAFT ZUR FORDERUNG DER ANGEWANDTEN …, dated 2012).
